Source: article PMC10786891, “Massively parallel profiling of RNA-targeting CRISPR-Cas13d”

T1: EsCas13d, nuclease-dead (Eubacterium siraeum, UniProt B0MS50, R295A;H300A;R849A;H854A)
T1 sequence: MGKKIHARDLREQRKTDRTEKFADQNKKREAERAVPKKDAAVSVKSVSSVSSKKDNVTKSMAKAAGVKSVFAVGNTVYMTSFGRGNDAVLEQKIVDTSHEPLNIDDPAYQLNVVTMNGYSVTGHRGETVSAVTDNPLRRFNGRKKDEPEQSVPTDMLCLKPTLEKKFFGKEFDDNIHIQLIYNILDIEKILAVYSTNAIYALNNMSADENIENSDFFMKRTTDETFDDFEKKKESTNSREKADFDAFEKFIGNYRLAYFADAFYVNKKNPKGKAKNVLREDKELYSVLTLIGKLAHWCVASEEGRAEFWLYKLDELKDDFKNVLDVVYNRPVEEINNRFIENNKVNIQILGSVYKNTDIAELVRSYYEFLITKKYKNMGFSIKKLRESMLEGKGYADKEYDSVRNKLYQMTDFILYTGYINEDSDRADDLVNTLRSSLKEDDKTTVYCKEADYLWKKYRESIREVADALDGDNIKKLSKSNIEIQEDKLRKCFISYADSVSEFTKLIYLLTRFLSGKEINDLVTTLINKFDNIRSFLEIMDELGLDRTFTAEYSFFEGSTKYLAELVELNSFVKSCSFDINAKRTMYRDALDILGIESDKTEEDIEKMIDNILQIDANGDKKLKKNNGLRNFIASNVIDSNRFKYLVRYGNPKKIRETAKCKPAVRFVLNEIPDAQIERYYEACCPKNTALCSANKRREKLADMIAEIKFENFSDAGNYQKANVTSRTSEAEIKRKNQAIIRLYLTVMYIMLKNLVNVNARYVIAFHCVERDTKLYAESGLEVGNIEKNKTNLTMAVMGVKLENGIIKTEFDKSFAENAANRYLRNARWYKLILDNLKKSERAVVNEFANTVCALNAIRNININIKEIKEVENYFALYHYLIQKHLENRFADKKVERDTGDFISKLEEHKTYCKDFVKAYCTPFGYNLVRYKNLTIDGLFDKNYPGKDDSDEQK


Biological target: T1, EsCas13d, nuclease-dead
Assay: BLI; crRNA (strand 1, pre-loaded); Mg2+; 40 mM Tris-HCl pH 7.5, 150 mM NaCl, 6 mM MgCl2, 1 mM DTT, 0.1% Tween-20, 0.2 mg/ml BSA; temperature not stated
Conditions: tags: His6-TwinStrep-SUMO cleaved; label: 3' biotin on strand 2

Binder | Kd [nM]
crRNA-2 (D950N) target (mixed) RNA 1: CACCCGUGCAAAAUUGCAGGGGUCUAAAACCUUGAAGUUUUCCAAGUGCACU RNA 2: UCCACAGCAAGUGCACUUGGAAAACUUCAAAAUGUGGUCA | 2.9
crRNA-1 (D950N) target (mixed) RNA 1: CACCCGUGCAAAAUUGCAGGGGUCUAAAACUUUUGGUUGACCACAUCUUGAA RNA 2: UUGGAAAACUUCAAAAUGUGGUCAACCAAAAUGCACAAGC | 15
